# In PMC10300122, “K235 acetylation couples with PSPC1 to regulate the m^6A demethylation activity of ALKBH5 and tumorigenesis” (Nature Communications, 2023):
# T1: recombinant PSPC1-His (UniProt Q8WXF1 1-523)
# T1 construct: paraspeckle component 1 (PSPC1) cloned into the pET 26b vector; source: E. coli BL21 (DE3), purified (His-tag Protein Purification Kit)
# T1 sequence (looked up): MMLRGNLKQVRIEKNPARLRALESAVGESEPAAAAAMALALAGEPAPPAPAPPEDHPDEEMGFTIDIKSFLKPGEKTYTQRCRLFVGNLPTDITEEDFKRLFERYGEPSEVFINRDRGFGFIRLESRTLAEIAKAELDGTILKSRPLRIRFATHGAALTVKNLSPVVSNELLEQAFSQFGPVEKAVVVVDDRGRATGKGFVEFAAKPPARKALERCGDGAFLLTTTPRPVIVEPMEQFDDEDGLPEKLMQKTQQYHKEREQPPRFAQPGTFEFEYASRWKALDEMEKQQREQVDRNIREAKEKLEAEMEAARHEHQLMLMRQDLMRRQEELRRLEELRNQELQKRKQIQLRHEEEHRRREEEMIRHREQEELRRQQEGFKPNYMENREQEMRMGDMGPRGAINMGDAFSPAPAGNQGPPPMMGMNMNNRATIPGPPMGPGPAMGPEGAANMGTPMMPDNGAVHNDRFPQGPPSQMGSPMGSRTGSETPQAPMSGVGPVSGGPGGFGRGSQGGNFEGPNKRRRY
# B1: recombinant GST-ALKBH5 (enzyme, UniProt Q6P6C2 1-394, looked up)
# chain: MAAASGYTDLREKLKSMTSRDNYKAGSREAAAAAAAAVAAAAAAAAAAEPYPVSGAKRKYQEDSDPERSDYEEQQLQKEEEARKVKSGIRQMRLFSQDECAKIEARIDEVVSRAEKGLYNEHTVDRAPLRNKYFFGEGYTYGAQLQKRGPGQERLYPPGDVDEIPEWVHQLVIQKLVEHRVIPEGFVNSAVINDYQPGGCIVSHVDPIHIFERPIVSVSFFSDSALCFGCKFQFKPIRVSEPVLSLPVRRGSVTVLSGYAADEITHCIRPQDIKERRAVIILRKTRLDAPRLETKSLSSSVLPPSYASDRLSGNNRDPALKPKRSHRKADPDAAHRPRILEMDKEENRRSVLLPTHRRRGSFSSENYWRKSYESSEDCSEAAGSPARKVKMRRH
# notes: AlkB homolog 5 (ALKBH5) cloned into the pGEX vector; also called recombinant ALKBH5; source: E. coli BL21 (DE3), purified (Glutathione Sepharose)
# B2: recombinant K235-acetylated GST-ALKBH5 (enzyme, UniProt Q6P6C2 1-394, looked up)
# chain: B1 chain
# modifications: acetyl-lysine at 235
# notes: AlkB homolog 5 (ALKBH5) cloned into the pGEX vector; The same construct as m6 after treatment with KAT8; source: E. coli BL21 (DE3), purified (Glutathione Sepharose), then K235-acetylated by immunopurified KAT8
# Molecular target: T1, recombinant PSPC1-His
# Assay: pull-down; GST pull-down: GST-ALKBH5 on glutathione beads (untreated or K235-acetylated by immunopurified KAT8) incubated with PSPC1-His at 4 °C for 1 h; washed with 20 mM HEPES pH 7.6, 0.1 M KCl, 0.1 μM EDTA, 10% glycerol, 0.02% NP-40; western blot
# Conditions: both partners purified
row,Binder,binding result
1,B1,binds
2,B2,binds
